± gives the standard deviation of the averaged measurements.
Test: total protein half-life in vivo (active degradation + dilution); higher = more stable protein
[1] = E. coli NCM3722 delta-clpP delta-lon delta-hslV, growth: N-lim chemostat, doubling time 6 h
[2] = E. coli NCM3722 delta-hslV, growth: N-lim chemostat, doubling time 6 h
[3] = E. coli NCM3722 delta-lon, growth: N-lim chemostat, doubling time 6 h
[4] = wild type E. coli NCM3722, growth: C-lim chemostat, doubling time 3 h
[5] = wild type E. coli NCM3722, growth: C-lim chemostat, doubling time 6 h
[6] = wild type E. coli NCM3722, growth: C-lim chemostat, doubling time 12 h
[7] = wild type E. coli NCM3722, growth: N-lim chemostat, doubling time 6 h
[8] = wild type E. coli NCM3722, growth: N-lim chemostat, doubling time 12 h
[9] = wild type E. coli NCM3722, growth: P-lim chemostat, doubling time 6 h
[10] = wild type E. coli NCM3722, growth: P-lim chemostat, doubling time 12 h
[11] = E. coli NCM3722 delta-smpB, growth: N-lim chemostat, doubling time 6 h
[12] = E. coli NCM3722 delta-clpP, growth: N-lim chemostat, doubling time 6 h

Row | Sequence | total protein half-life in vivo [1] [h] | total protein half-life in vivo [2] [h] | total protein half-life in vivo [3] [h] | total protein half-life in vivo [4] [h] | total protein half-life in vivo [5] [h] | total protein half-life in vivo [6] [h] | total protein half-life in vivo [7] [h] | total protein half-life in vivo [8] [h] | total protein half-life in vivo [9] [h] | total protein half-life in vivo [10] [h] | total protein half-life in vivo [11] [h] | total protein half-life in vivo [12] [h]
1 | MARINRISITLCALLFTTLPLTPMAHASKQARESSATTHITKKADKKKSTATTKKTQKTAKKAASKSTTKSKTASSVKKSSITASKNAKTRSKHAVNKTASASFTEKCTKRKGYKSHCVKVKNAASGTLADAHKAKVQKATKVAMNKLMQQIGKPYRWGGSSPRTGFDCSGLVYYAYKDLVKIRIPRTANEMYHLRDAAPIERSELKNGDLVFFRTQGRGTADHVGVYVGNGKFIQSPRTGQEIQITSLSEDYWQRHYVGARRVMTPKTLR | > 8 | 3.67 | 2.15 | 2.57 ± 0.19 | 5.435 ± 0.027 | 9.36 ± 4.5 | 2.63 ± 0.55 | 6.47 ± 1.8 | 3.69 ± 0.066 | 6.68 ± 0.86 |  | 
2 | MARKTKPLTDTEIKAAKPKDADYQLYDGDGLTLLIKSSGSKLWQFRYYRPLTKQRTKQSFGAYPAVSLSDARKLRAESKVLLAKDIDPQEHQKEQVRNSQEAKTNTFLLVAERWWNVKKTSVTEDYADDIWRSLERDIFPAIGDISITEIKAHTLVKAVQPVQARGALETVRRLCQRINEVMIYAQNTGLIDAVPSVNIGKAFEKPQKKNMPSIRPDQLPQLMHTMRTASISMSTRCLFMWQLLTITRPAEAAEARWDEIDFNASEWKIPAARMKMNRDHTVPLSDGALAILEMMKPLSGGREFIFPSRIKPNQPMNSQTVNAALKRAGLGGVLVSHGLRSIASTALNEEGFPPDVIEAALAHVDKNEVRRAYNRSDYLEQRRPMMQWWADLVKAADSGSIVLTHLSKIRLVG | 5.38 ± 0.81 | 0.734 ± 0.064 | 1.362 ± 0.0065 | 1.16 ± 0.22 | 1.13 ± 0.079 | 0.594 | 1.7 ± 0.26 | 0.847 | 0.572 | 1.64 ± 0.32 | 0.777 ± 0.0083 | 
3 | MARKTKQEAQETRQHILDVALRLFSQQGVSSTSLGEIAKAAGVTRGAIYWHFKDKSDLFSEIWELSESNIGELELEYQAKFPGDPLSVLREILIHVLESTVTEERRRLLMEIIFHKCEFVGEMAVVQQAQRNLCLESYDRIEQTLKHCIEAKMLPADLMTRRAAIIMRGYISGLMENWLFAPQSFDLKKEARDYVAILLEMYLLCPTLRNPATNE [P0ACS9] | 5.34 ± 0.52 | 6.2 | 5.24 |  | 5.61 | 10.8 ± 0.63 | 5.74 | 11.6 | 4.88 | 7.48 | 5.82 ± 1.9 | 
4 | MARTKLKFRLHRAVIVLFCLALLVALMQGASWFSQNHQRQRNPQLEELARTLARQVTLNVAPLMRTDSPDEKRIQAILDQLTDESRILDAGVYDEQGDLIARSGESVEVRDRLALDGKKAGGYFNQQIVEPIAGKNGPLGYLRLTLDTHTLATEAQQVDNTTNILRLMLLLSLAIGVVLTRTLLQGKRTRWQQSPFLLTASKPVPEEEESEKKE [P0AGC7] | 4.45 ± 0.17 | 4.9 ± 1 | 4.57 ± 0.81 | 3.05 ± 0.13 | 6.19 ± 1.3 |  | 3.69 ± 0.5 | 6.81 ± 0.24 | 5.23 ± 0.067 | 9.34 ± 0.24 | 4.34 ± 0.23 | 4.93 ± 0.059
5 | MASISSLGVGSGLDLSSILDSLTAAQKATLTPISNQQSSFTAKLSAYGTLKSALTTFQTANTALSKADLFSATSTTSSTTAFSATTAGNAIAGKYTISVTHLAQAQTLTTRTTRDDTKTAIATSDSKLTIQQGGDKDPITIDISAANSSLSGIRDAINNAKAGVSASIINVGNGEYRLSVTSNDTGLDNAMTLSVSGDDALQSFMGYDASASSNGMEVSVAAQNAQLTVNNVAIENSSNTISDALENITLNLNDVTTGNQTLTITQDTSKAQTAIKDWVNAYNSLIDTFSSLTKYTAVDAGADSQSSSNGALLGDSTLRTIQTQLKSMLSNTVSSSSYKTLAQIGITTDPSDGKLELDADKLTAALKKDASGVGALIVGDGKKTGITTTIGSNLTSWLSTTGIIKAATDGVSKTLNKLTKDYNAASDRIDAQVARYKEQFTQLDVLMTSLNSTSSYLTQQFENNSNSK |  | > 8 |  | 1.4 ± 0.12 | 0.627 ± 0.1 | 0.906 ± 0.44 |  | > 16 | > 8 | > 16 | > 8 | > 8
6 | MASSGTTSTRKRFTGAEFIVHFLEQQGIKIVTGIPGGSILPVYDALSQSTQIRHILARHEQGAGFIAQGMARTDGKPAVCMACSGPGATNLVTAIADARLDSIPLICITGQVPASMIGTDAFQEVDTYGISIPITKHNYLVRHIEELPQVMSDAFRIAQSGRPGPVWIDIPKDVQTAVFEIETQPAMAEKAAAPAFSEESIRDAAAMINAAKRPVLYLGGGVINAPARVRELAEKAQLPTTMTLMALGMLPKAHPLSLGMLGMHGVRSTNYILQEADLLIVLGARFDDRAIGKTEQFCPNAKIIHVDIDRAELGKIKQPHVAIQADVDDVLAQLIPLVEAQPRAEWHQLVADLQREFPCPIPKACDPLSHYGLINAVAACVDDNAIITTDVGQHQMWTAQAYPLNRPRQWLTSGGLGTMGFGLPAAIGAALANPDRKVLCFSGDGSLMMNIQEMATASENQLDVKIILMNNEALGLVHQQQSLFYEQGVFAATYPGKINFMQIAAGFGLETCDLNNEADPQASLQEIINRPGPALIHVRIDAEEKVYPMVPPGAANTEMVGE | 2.91 ± 0.088 | 1.28 ± 0.21 | 1.6 ± 0.46 | 2.4 ± 0.39 | 2.86 ± 0.38 | 4.64 ± 1.5 | 1.4 ± 0.11 | 2.49 | 4.5 | 8.65 ± 1.8 | 1.43 ± 0.086 | 1.25 ± 0.025
7 | MASSNLIKQLQERGLVAQVTDEEALAERLAQGPIALYCGFDPTADSLHLGHLVPLLCLKRFQQAGHKPVALVGGATGLIGDPSFKAAERKLNTEETVQEWVDKIRKQVAPFLDFDCGENSAIAANNYDWFGNMNVLTFLRDIGKHFSVNQMINKEAVKQRLNREDQGISFTEFSYNLLQGYDFACLNKQYGVVLQIGGSDQWGNITSGIDLTRRLHQNQVFGLTVPLITKADGTKFGKTEGGAVWLDPKKTSPYKFYQFWINTADADVYRFLKFFTFMSIEEINALEEEDKNSGKAPRAQYVLAEQVTRLVHGEEGLQAAKRITECLFSGSLSALSEADFEQLAQDGVPMVEMEKGADLMQALVDSELQPSRGQARKTIASNAITINGEKQSDPEYFFKEEDRLFGRFTLLRRGKKNYCLICWK [P0AGJ9] | 5.31 ± 0.33 | 5.61 ± 0.41 | 5.87 ± 0.23 | 3.11 ± 0.094 | 6.32 ± 0.36 |  | 5.51 ± 0.065 | 10.5 ± 0.76 | 6.271 ± 0.031 | 12.2 ± 0.76 | 5.58 ± 0.69 | 5.55 ± 0.44

From the supplement of paper PMC11246515
